Values of other authors as cited in paper PMC3025320.

Key:
C3d C3d (Homo sapiens) = C3d C3d (Homo sapiens) (UniProt P01024); assay: ITC
[1] = molecular target: C3d C3d (996-1303) (Homo sapiens) (UniProt P01024); assay: ITC
Sequence of C3d C3d (996-1303) (Homo sapiens) (P01024 996-1303): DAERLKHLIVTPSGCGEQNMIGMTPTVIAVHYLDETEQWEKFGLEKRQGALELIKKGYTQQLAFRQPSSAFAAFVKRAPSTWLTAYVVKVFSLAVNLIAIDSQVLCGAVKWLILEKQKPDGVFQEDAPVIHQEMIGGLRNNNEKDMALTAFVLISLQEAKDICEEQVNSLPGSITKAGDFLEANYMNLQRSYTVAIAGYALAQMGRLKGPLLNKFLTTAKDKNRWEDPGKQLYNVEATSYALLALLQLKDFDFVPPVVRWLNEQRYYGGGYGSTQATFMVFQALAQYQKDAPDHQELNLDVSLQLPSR

Sequence of C3d C3d (Homo sapiens) (P01024 1002-1303): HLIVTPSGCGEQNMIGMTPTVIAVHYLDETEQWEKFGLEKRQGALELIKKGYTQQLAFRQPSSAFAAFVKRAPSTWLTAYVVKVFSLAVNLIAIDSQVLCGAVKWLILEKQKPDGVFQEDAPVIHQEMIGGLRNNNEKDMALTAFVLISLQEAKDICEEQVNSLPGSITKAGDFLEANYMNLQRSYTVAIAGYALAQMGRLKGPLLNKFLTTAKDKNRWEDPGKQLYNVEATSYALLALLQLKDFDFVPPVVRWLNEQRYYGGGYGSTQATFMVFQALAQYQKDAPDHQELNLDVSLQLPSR
Sequence of Efb-C Efb-C (P68799 101-165): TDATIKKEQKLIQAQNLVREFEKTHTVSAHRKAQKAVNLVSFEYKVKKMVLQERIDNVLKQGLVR

Sbi-III-IV domains III-IV (from UniProt A7X659)
Kd (C3d C3d (Homo sapiens)): 0.4 µM

Sbi-IV domain IV (from UniProt A7X659)
Kd [1]: 0.36 µM
Kd (C3d C3d (Homo sapiens)): 0.36 µM

Sbi-III–IV domains III-IV (from UniProt A7X659)
Kd [1]: 0.4 µM

Efb-C Efb-C (from UniProt P68799)
Kd (C3d C3d (Homo sapiens)): 0.002 µM
